Test results from PMC7665024, “Anti-apoptotic BCL-2 regulation by changes in dynamics of its long unstructured loop” (Communications Biology, 2020).

Experiments:
[1] = tested on: BAX-induced MOMP, isolated mitochondria; test: In vitro cytochrome c release assay, isolated mitochondria (BCL-2 mutants); format: biochemical, mouse; conditions: Bax+BimBH3 = 100, mean of n = 6
Description: To verify this implication, we performed in vitro cytochrome c release assay using isolated mitochondria. […] Lane 3 (Fig. 2a) is a positive control for the cytochrome c release assays. […] (More experimental results in support of the observed BCL-2 activity are given in Supplementary Fig. 3.)
Fig. 2 In vitro assays for evaluating BCL-2 activity. a Cytochrome c release assay with various BCL-2 mutants at varying concentrations. All of the release amounts are normalized to the result caused by the BimBH3-induced BAX activation (lane 3). […] GUVs provide a MOM-like environment devoid of endogenous mitochondrial proteins.
A Dounce homogenizer was used with 20 strokes to homogenize mouse liver tissue (0.2 mg). The mitochondria fraction was separated using centrifugation according to the Mitochondria Isolation Kit (Thermo Scientific). Mitochondria Assay Buffer A (MAB A) (200 mM mannitol, 68 mM sucrose, 10 mM HEPES, 110 mM KCl, 1 mM EDTA, […], 0.1% BSA, protease inhibitor) was used to wash the mitochondria fraction, followed by centrifugation at 12,000 × g. The pellet was collected and resuspended using enough MAB B (i.e., MBA A without 0.1% BSA) and then quantified by bradford assay (Bio-Rad) to yield a final protein content of the mitochondrial fraction ~3 mg/mL. The final mitochondria fraction was placed on ice for further downstream processing or stored at −80 °C with additional 300 mM trehalose for future use[38]. […] The mixture was then incubated with BAX (0.1 μM) and 10 μL of the mitochondrial fraction ([…]) for 0.5 h at 37 °C. Final volume was adjusted to 30 μL. Following centrifugation at 12,000×g for 10 min, the supernatant was subjected to subsequent immunoblotting (IB). Quantification of IB was done using ImageJ software (version 1.49, NIH). The fraction of cytochrome c released (%) is calculated by (I–I0)/(Imax–I0)×100%, where Imax and I0 are the analyzed intensities of cytochrome c with and without activated BAX, respectively.
Samples were resolved by SDS–PAGE (15%) and electroblotted onto a 0.45 μm PVDF membrane (GE Healthcare). Primary antibodies used in this study included rabbit anti-BAX N20 (Santa Cruz Biotechnology), mouse anti-BCL-2(C2) (Santa Cruz Biotechnology) and mouse anti-cytochrome c antibodies (clone 7H8.2C12, Millipore). Detection was achieved using sheep anti-mouse IgG HRP (GE Healthcare) and donkey anti-rabbit IgG HRP (GE Healthcare) secondary antibodies. Proteins were visualized by 4CN Plus Chromogenic Substrate (PerkinElmer).

[2] = tested on: BCL-2 EEE (T69E/S70E/S87E; EEE-PB); test: FRET association with Pacific Blue-labeled BCL-2 EEE; conditions: Fig. 1d
[3] = tested on: trypsin; test: Limited proteolysis by trypsin; conditions: BCL-2 20 μM, trypsin 0.04-9.44 μM, 1 h, room temperature, SDS-PAGE
Protocol: Fig. 3 Structural differences between WT and EEE. a An illustration of mutation sites prepared for spin-labeling ESR studies. b Distance distributions of various double-spin-labeled BCL-2 (WT or EEE) mutants are determined from the experimental DEER data. […] As highlighted, the displacements of α1 and α2 account for the major differences. d An illustration highlighting the positions of α2–α7 and the binding groove. Structures of WT and EEE are colored as in c. Helices α4–α7 change little between the WT and EEE. The displacement of α2 is critical to the change in the local environment of the binding groove. e Limited proteolysis of BCL-2 (20 μM) analyzed on SDS–PAGE. Trypsin concentrations were 0.04, 0.11, 0.34, 1.03, 3.11, 9.44 μM. Incubation time was 1 h at room temperature. It confirms that tertiary conformations of WT versus EEE are indeed different.
BCL-2 conformational change was assessed by limited proteolysis using trypsin (MERCK). In brief, 5 µg BCL-2 (WT or EEE) was digested at enzyme/substrate ratios ranging from 1:2 to 1:461 for 1 h at room temperature. Proteolysis was quenched by adding 1 mM PMSF, and then samples were confirmed by SDS–PAGE with Coomassie blue staining.

[4] = tested on: BAX; test: FRAP-GUV pore-forming activity of BAX, 70-kDa F-dextran; format: biochemical, mouse; design: FRAP pore-forming activity / FRAP pore-forming activity, average / p (FRAP-70k-p), Average: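 unitless ratio D/D0 relative to diffusion coefficient after Triton X-100 disruption of GUVs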
Protocol: (§1) Briefly, GUVs were incubated with the proteins of interest over a period of time (Fig. 2c), followed by photobleaching within individual GUVs. A series of fluorescent images were collected over time after the photobleaching and then analyzed to yield the diffusion coefficients of Fluor molecules (including FITC-labeled 70-kDa, and Alexa-647-labeled 10-kDa probes) using the theoretical approach detailed in the “Methods” section. As Fluor molecules are homogeneously dispersed in the solution (outside and inside of GUVs) before the incubation with BAX and activators, it is reasonable to expect that the larger the induced pore area on the surface of a GUV, the greater the diffusion coefficient. Thus, the diffusion coefficient is directly related to the pore-forming activity of activated BAX. As the pore-forming activity is proportional to the concentration of BAX[18], we fixed the total amount of added BAX in all of the measurements below (see the “Methods” section).
(§2) Full-length BAX and variants were prepared as previously described[18],[22],[35]. Mouse BAX was cloned into pTYB1 vector (New England Biolabs, Inc.), resulting pTYB1-BAX construct. The pTYB1-BAX construct encoding a fusion protein of BAX with chitin-binding peptide was separated by a self-cleavable intein tag to obtain a full-length BAX. Wild-type BAX has two native cysteine residues at 62 and 126. Cysteine-free construct (C62S/C126S) was used to prepare single-cysteine BAX variants for conjugating fluorescence probes (e.g., BAX136C in Fig. 1d). Point mutations of recombinant BAX were generated using a QuikChange mutagenesis kit. Proteins were expressed in E. coli (ER2566) strain (New England Biolabs, Inc.) and purified without detergent. Bacterial cultures were grown at 37 °C in LB medium containing 0.1 g/L ampicillin to reach an OD600 of 1.0. BAX expression was induced by addition of 0.3 mM IPTG at 30 °C for 6−8 h. The cells were harvested by centrifugation and resuspended in ice-cold lysis buffer (20 mM Tris–HCl, pH 7.0, 500 mM NaCl and 1 mM PMSF). The resuspended pellet was sonicated on ice for 30 min, followed by centrifugation at 12,800 × g for 50 min. […] The resins were incubated in a pre-equilibrated buffer (20 mM sodium phosphate, pH 8.0, 100 mM NaCl, 60 mM dithiothreitol (DTT)) for 48 h. Proteins were eluted from column and further purified by a SEC using a HiLoad 16/60 Superdex 75 column (GE Healthcare) pre-equilibrated in PB buffer (20 mM sodium phosphate, pH 7.4, 100 mM NaCl). Purified proteins were confirmed by SDS–PAGE with Coomassie blue staining. Protein concentration was determined using absorption spectroscopy at 280 nm.
(§3) All lipids used were purchased from Avanti Polar Lipids. […] Texas Red 1,2-dihexadecanoyl-sn-glycero-3-phosphoethanolamine (TR-DPPE) (Invitrogen) of 0.05% was added to the lipid mixture for virtualization of GUV[18],[26],[27]. GUVs were prepared with the gel-assisted swelling on a polyvinyl alcohol (PVA) gel[39]. A 5% (w/w) solution of PVA (MW 145,000) was prepared by stirring PVA in ddH2O while heating at 90 °C. PVA solution was spread on a microscope coverslip (18 × 18 mm, Matsunami, Japan) and then dried at 50 °C. Lipid mixture (1 mg/mL) dissolved in chloroform were spread on the dry PVA film and placed under vacuum for 30 min to evaporate the solvent. Lipids were rehydrated for 1 h in PB buffer. The resulting GUVs were transferred to an Eppendorf tube using blunt tips.
(§4) FRAP measurements were performed as described previously. […] All reactions were at room temperature and the final volume was 200 μL.

[5] = tested on: BAX; test: FRAP-GUV pore-forming activity of BAX, 10-kDa F-dextran; format: biochemical, mouse; design: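 unitless ratio D/D0 relative to diffusion coefficient after Triton X-100 disruption of GUVs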; conditions: 10 kDa F-dextran
Protocol: as §1, §2, §3, §4

In the case of “S70E: less potent phosphomimetic mutant S70E of TM-truncated BCL-2”, the “Cytochrome c release, Average” value ([1]; BAX+BimBH3 + 2uM BCL-2 protein) is reported as 76.6421, the “Cytochrome c release, Average” value ([1]; BAX+BimBH3 + 4uM BCL-2 protein) is reported as 24.3731 and the “Cytochrome c release, Average” value ([1]; BAX+BimBH3 + 6uM BCL-2 protein) is reported as 15.7119.

In the case of “BimBH3-AL488: BimBH3 peptide labeled with Alexa Fluor 488 at C-terminal cysteine (FRET acceptor)”, the “molecular association with EEE compared with S70E or WT (in words)” value [2] is reported as “associated with EEE-PB more potently than with S70E-PB or WT-PB”.

“WT: TM-truncated wild-type human BCL-2 (BCL-2-ΔTM, residues 1–217, C-terminal His6-tag)” was tested, and the “Cytochrome c release, Average” value ([1]; BAX+BimBH3 + 2uM BCL-2 protein) was 77.3682, the “Cytochrome c release, Average” value ([1]; BAX+BimBH3 + 4uM BCL-2 protein) was 50.0022 and the “Cytochrome c release, Average” value ([1]; BAX+BimBH3 + 6uM BCL-2 protein) was 21.4104. The “susceptibility to trypsin proteolysis (in words)” value [3] was “susceptible to proteolysis and rapidly degraded to fragments”.

B1: EEE-PB: EEE labeled with Pacific Blue (FRET donor) (conjugate)
chain: MAHAGRTGYDNREIVMKYIHYKLSQRGYEWDAGDVGAAPPGAAPAPGIFSSQPGHTPHPAASRDPVAREEPLQTPAAPGAAAGPALEPVPPVVHLTLRQAGDDFSRRYRRDFAEMSSQLHLTPFTARGRFATVVEELFRDGVNWGRIVAFFEFGGVMCVESVNREMSPLVDNIALWMTEYLNRHLHTWIQDNGGWDAFVELYGPSMRPLFDFSWLSL
modifications: Pacific Blue (maleimide) on the native cysteine 158; left off: His6, C-terminal, state not stated
In the case of B1, the “pore-forming activity / effect on BAX-induced membrane pores on GUV (in words)” value ([4]; 10- and 70-kDa F-dextran, BAX 1 µM, BimBH3 2 µM, BCL-2 1 µM, ABT-199 30 µM, room temperature, Fig. 2c) is reported as “The ability of EEE to sequester BimBH3 is similar to that of EEE-PB”, the “FRAP pore-forming activity, average” value ([4]; 70 kDa F-dextran, mean of trials) is reported as 0.000389 and the FRAP pore-forming activity ([4]; 70 kDa F-dextran, trial1) is reported as 0.00033. The FRAP pore-forming activity ([4]; 70 kDa F-dextran, trial2) was 0.000165, the FRAP pore-forming activity ([4]; 70 kDa F-dextran, trial3) was 0.000165 and the FRAP pore-forming activity ([4]; 70 kDa F-dextran, trial4) was 0.00033. It also gave an FRAP pore-forming activity ([4]; 70 kDa F-dextran, trial5) of 0.00033, an FRAP pore-forming activity ([4]; 70 kDa F-dextran, trial6) of 0.000165 and an FRAP pore-forming activity ([4]; 70 kDa F-dextran, trial7) of 0.00033. For the same molecule, the FRAP pore-forming activity ([4]; 70 kDa F-dextran, trial8) was 0.0006601, the FRAP pore-forming activity ([4]; 70 kDa F-dextran, trial9) was 0.0008251 and the FRAP pore-forming activity ([4]; 70 kDa F-dextran, trial10) was 0.000495. The FRAP pore-forming activity ([4]; 70 kDa F-dextran, trial11) was 0.000495, the FRAP pore-forming activity ([4]; 70 kDa F-dextran, trial12) was 0.00033 and the FRAP pore-forming activity ([4]; 70 kDa F-dextran, trial13) was 0.00033. The FRAP pore-forming activity ([4]; 70 kDa F-dextran, trial14) was 0.000495, the “FRAP pore-forming activity, average” value ([5]; mean of trials) was 0.001441 and the FRAP pore-forming activity ([5]; trial1) was 0.0008772. For the same molecule, the FRAP pore-forming activity ([5]; trial2) was 0.0007018, the FRAP pore-forming activity ([5]; trial3) was 0.0003509 and the FRAP pore-forming activity ([5]; trial4) was 0.0008772. It also gave an FRAP pore-forming activity ([5]; trial5) of 0.001228, an FRAP pore-forming activity ([5]; trial6) of 0.0007018 and an FRAP pore-forming activity ([5]; trial7) of 0.001228. The FRAP pore-forming activity ([5]; trial8) was 0.002456, the FRAP pore-forming activity ([5]; trial9) was 0.002807 and the FRAP pore-forming activity ([5]; trial10) was 0.001579. The FRAP pore-forming activity ([5]; trial11) was 0.002105, the FRAP pore-forming activity ([5]; trial12) was 0.001404 and the FRAP pore-forming activity ([5]; trial13) was 0.001579. The FRAP pore-forming activity ([5]; trial14) was 0.002281.
